Measurements taken from the DeepSol protein solubility set.

Experiment: soluble on expression in E. coli; label from the status in PepcDB or PDB records

Row | Sequence | soluble on expression in E. coli
1 | AHHHHHHGSRTNAFEAVARYVYPSLRRRLVEILRERGLTQIQIAELLHITQSAVSRYLRMNRGALIEVEKFQDIDEKLKGLADTIVREKPDEYYIHGELVKIAVEMLGKGYVCSFHSKVDPEIDPKLCRICIETFG | not soluble
2 | AHHHHHHGSVRDMEFGNLKPGVENSVCLSAEDLLNTVLSVINSTKARGAYVKIFGKDMEDNYLLEMLVDGSRILAIECSYVQAKKKVVGEEAIKKLAELVELPLIVSVYPLDDNQFRLILANNLEVYSQTPAVPLSSVFKKGATRTIESAIEEAKEEKEEEIQKIMKKTEEIVTEEKKKKEEKKRSSNRNTKRKQN | soluble
3 | AIAANQWERFVWLALDAPDTIVERAPLVIQVAWLEDTQLRLWEPAAREPLKRGDDAALRTYLRDAAECPWDPATDPSLVREFLLSRAVDCAFRDELAEHAGCVVDEELDTDFIAETMALSEELVRADDKKLPLETQDLDPASFDLLRAELALPAASAREVLRAGAHWAITRWPPREQWLPPCSRADAPATTALAATGGVPSEAQATPEPMCTETTVSDATCALPSGVYAQLQRIGRQLHNEELLYTQHLLNAALERAQTMTANPRTEARLGRVGH | soluble
4 | AIADNGDWGYMMTDPVTLNVGGHLYTTSLTTLTRYPDSMLGAMFGGDFPTARDPQGNYFIDRDGPLFRYVLNFLRTSELTLPLDFKEFDLLRKEADFYQIEPLIQCLNDPKPLYPMDTFEEVVELSSTRKLSKYSNPVAVIITQLTITTKVHSLLEGISNYFTKWNKHMMDTRDCQVSFTFGPCDYHQEVSLRVHLMEYITKQGFTIRNTRVHHMSERANENTVEHNWTFCRLARKTDD | soluble
5 | AIAEKLSEWKKFRIDSDKNDWIEQVDISGAKSLYEKEAQDKPLRVLVLYGSLRQRSFTRCCAYEAARLLDHLGADVRVFDPTELPVKGQVEETHHKVQELRELALWSEAQFWCSPEMHGNVTGCFKNQIDWIPLSLGSVRPTQGRTLAICQVNGGSQSFNAVNTLRVLGRWMRMFTIPNQSSIPKAWQEFDEYNRMKPSPLRDRLVDVVEELVKFSLMLRDHSSFHCVCQKL | soluble
6 | AIAELTGQRLREGDGPDGPADDGAGAQADLEHSLLVAAEKKDEGPYRMEHFRWGSPPKDKRYGGFMTSEKSQTPLVTLFKNAIIKNAYKKGE | soluble
7 | AIAGSRQDPVPLSFVTLQEQRCVLSWFLGWNVAQKQRFLEDLISKAVPGKVSSLLDQLNTLQVNDRPPNIFECQLRLWTQWFDSWSEEERNAFLNCLEEKDPTFVAFFYDQVAGTAGRD | soluble
8 | AIAMWQDQPMPSMDLVKNAFWNYVSQATLTAEETLQMIRNSELGQEINDRISKSTDAINKYTLAIQSQVTPLTQELLTKLSKEADQLKLSLEQEITSAQTQLKPYVEELKVDIEEQIERLKKDVAPYAEALNPEAMRLTLVQRAEELKAKLETSLMAMGPQSEELKQKLEQHFVEFQMSMSPLAESFQSQLAQRSQELQKNLAPYSEELSKLDPLAQDLKDQLTALWESFAKDKQS | soluble
9 | AIARALESTPLTGDVDWKSPLGSRSTWARLREQTRHCTFYRTYCFKASLKQLEEVTEEHVTYVGDCAALPPSPFLCVLLAYDCCSPSREEVAAHLDCSKNVYWRAIVATWIRWKESRAEQVYQLLDPLYRDYRPIKVRQKDNSYHNSYLDVFIDQLLRYRCALVSLEEPFVLDVIPFPHLPPRYELEARGVLPQREYAAPADDDDDDDAVSRPRLQQ | soluble
10 | AIASTMVYPREERLEKLTQDEIISSTKLVIQGLEALKSEHNSILQSLLETIQCLKKDEEASLVHEKSSLLRKSVEMIELGLGEAQVMMALSNHLNAVESEKQKLRAQVRRLCQENQWLRDELANTQHKVQKSEQSVAQLEEEKKHLEFMNQLKKYDDGATPEVSPHNDMHRDVSLSVRQLKRLRESK | soluble
11 | AICCQVDNCGADLSKVKDYHRRHKVCEIHSKATTALVGGIMQRFCQQCSRFHVLEEFD | soluble
12 | AKFREIANIALGKGAAIMADHLHEFIQLPVPHVGPLSYGELHMTLVDVIGRDSSVAVSQRFVGGGIHGEALVCLRGKDINQIGERLGYLLEFTPHNEIILNVSNLLVSSFLTSLGNQLDKQFSLRQPGIVDTITPYNEEQGESGELFTIEYTYMAEALDFECEVLFLIDKPSVEIIYEIMELI | not soluble
13 | AKPVTSETMAAKTVGLQIYSLGKELYADVPGGLKKIKQMGYTNLELAGYKEGKIGGVDMMEFKKMVDDAGLKITSSHVNPPVREYTKANRSQISEYWKKTADDHAKLGVKYLIQPGQPSTRSTEETAFVCEIFNEAGKIVKAAGIPFGYHNHEMEFAKVNPGSTEAKLGRRVKGDCIYELFLKNTDPSLVFFEMDVYWAVMGQQDPIEWLKKYPNRIKVLHIKDRAILGESGMMNFENIFRQAYANGIKDYFVELEGMPDGRSQFEGVKGCVDYLLKAPFVK | soluble
14 | AKVVCVLYDDPINGYPTSYARDDLPRIDKYPDGQTLPTPKAIDFTPGALLGSVSGELGLRKYLESQGHELVVTSSKDGPDSELEKHLHDAEVIISQPFWPAYLTAERIAKAPKLKLALTAGIGSDHVDLQAAIDNNITVAEVTYCNSNSVAEHVVMMVLGLVRNYIPSHDWARNGGWNIADCVARSYDVEGMHVGTVAAGRIGLRVLRLLAPFDMHLHYTDRHRLPEAVEKELNLTWHATREDMYGACDVVTLNCPLHPETEHMINDETLKLFKRGAYLVNTARGKLCDRDAIVRALESGRLAGYAGDVWFPQPAPNDHPWRTMPHNGMTPHISGTSLSAQTRYAAGTREILECYFEGRPIRDEYLIVQGGGLAGVGAHSYSKGNATGGSEEAAKYEKLDA | soluble
15 | ALLAVSMVACTSDEIALIEAMSKTSEISSYEGNSKIQLSFKGQGFSEKTQKVFDFLASYVDGFTFEANQKYSSNDEKTKATLAMDGNVDMQGLSVKYKYWTDMDFTTENPSLIQIVELPPAITQPMFTFANTGTKKYITIDYGSVLSAENNGGISLNPENLAKNSVELQEMLLDFVKTTAKDFDPGMVAVTKKGSAVTDKGEKVTEYELKLDDAAAKKLLHAFINDVILQEDTIEFGKKYMEAAINMYDFPEEEKQEALDEINKGLDEFASQLPAYRDSVTQVFESIKDVKFFGDKGLVAKYYINNDGFLVGGKSSIDIKIKMADFAALLGDNFDEKDKNGVLYLTIDAESSVYNINKEVSIELPEITEENSFDVLKGFMPILSGIGSAPGIGEEDYTYDIPALSDGINVVMNGKVVYFPDVKPENVNGRVLVPIRTISEEMGAEVTYNDATKQVLIAKDDTEILLTIGSQEAYVNGEKIMLDVPAMIIEGRTMVPLRFISESMNATVEWDGEAQIVYIFY | not soluble
16 | ALSGGFIKGFAHLGVMQALLEHDIKPDIISGVSAGALAGVFYADGNEPHQVIEYFSGHKFQDLTKLVIPKKGLFDLCEFIDFLHTNLKAKNLEELQIPLIITATDLDHGRMVHFHRGSIAERVAASCCMPVMFAPVNIDGTNYVDGGLMMNLPVSTLRRICDKVVAVNVSPIMAQDYKMNIVSIAMRSFHFMFRANTFPEREKCDLLIEPYNLYGYSNTELEKAEEIFEQGYKIAND | not soluble
17 | AMADIGSMGDPLTWSKALKKLEKVTVQGSQKLTTGNCNWALSLVDLFHDTNFVKEKDWQLRDVIPLLEDVTQTLSGQEREAFERTWWAISAVKMGLQINNVVDGKASFQLLRAKYEKKTANKKQSEPSEEY | soluble
18 | ANATVKMGSDSGALVFEPSTVTIKAGEEVKWVNNKLSPHNIVFAADGVDADTAAKLSHKGLAFAAGESFTSTFTEPGTYTYYCEPHRGAGMVGKVVVD | soluble
19 | ANGLFYSLRGNFSFARNKIIENDEPKPKYEYQDARGRRIDQTFGLVALGFFKDQDDIKNSPKQTFQSTVRPGDIKYKDINGDGVVDEYDKVAIGDPRTPEIMFGFGGTVAYKNFDVSLFFTGAAKTSFFLEGATVYPFLNGEGTWNVLREVYDNRWTSETAATAKYPIVLNANSYNNYQTSTMYMRNGSYLRLKSAEIGYTFKGRLIDKMFMDNIRLFCNGQNLLTLDYIKIVDPESNNGVGNYPMQRTINFGFQINFK | not soluble
20 | ANSMLKGKVALVTGASRGIGRAIAKRLANDGALVAIHYGNRKEEAEETVYEIQSNGGSAFSIGANLESLHGVEALYSSLDNELQNRTGSTKFDILINNAGIGPGAFIEETTEQFFDRMVSVNAKAPFFIIQQALSRLRDNSRIINISSAATRISLPDFIAYSMTKGAINTMTFTLAKQLGARGITVNAILPGFVKTDMNAELLSDPMMKQYATTISAFNRLGEVEDIADTAAFLASPDSRWVTGQLIDVSGGSCL | soluble
21 | APARPAHPLDPLSTAEIKAATNTVKSYFAGKKISFNTVTLREPARKAYIQWKEQGGPLPPRLAYYVILEAGKPGVKEGLVDLASLSVIETRALETVQPILTVEDLCSTEEVIRNDPAVIEQCVLSGIPANEMHKVYCDPWTIGYDERWGTGKRLQQALVYYRSDEDDSQYSHPLDFCPIVDTEEKKVIFIDIPNRRRKVSKHKHANFYPKHMIEKVGAMRPEAPPINVTQPEGVSFKMTGNVMEWSNFKFHIGFNYREGIVLSDVSYNDHGNVRPIFHRISLSEMIVPYGSPEFPHQRKHALDIGEYGAGYMTNPLSLGCDCKGVIHYLDAHFSDRAGDPITVKNAVCIHEEDDGLLFKHSDFRDNFATSLVTRATKLVVSQIFTAANYEYCLYWVFMQDGAIRLDIRLTGILNTYILGDDEEAGPWGTRVYPNVNAHNHQHLFSLRIDPRIDGDGNSAAACDAKSSPYPLGSPENMYGNAFYSEKTTFKTVKDSLTNYESATGRSWDIFNPNKVNPYSGKPPSYKLVSTQCPPLLAKEGSLVAKRAPWASHSVNVVPYKDNRLYPSGDHVPQWSGDGVRGMREWIGDGSENIDNTDILFFHTFGITHFPAPEDFPLMPAEPITLMLRPRHFFTENPGLDIQPSYAMTTSEAKRAV | soluble
22 | APYRYLAAGAADVISNLSAVKDWKLAHRLKGEEFSSSAAAMSEYSAQEVLSQINEIKKYEESSVWLVTKNILASGTAMAIAGNSRPGSGSEHLFAHALEAAGVENMLHGEMCAMGTVISMYLHDENWQQIKEAFDNLGISIRSRDYGIEDEIVINALRTAHAIRPERYTILGESDMSYDAAVKALELTGI | not soluble
23 | AQGQRRAPLSVVFTEPQVASVGLSLRQIEDLYADQDAANYVVGQVSFEGQGRSRVMGKNKGLLNVYADRTSGEFLGAEMFGPAAEHIGHLLAWARQQQMTVQAMLTMPFYHPVIEEGLRTALRDAQQKLAIEKHDMNEFIMTHDNAMKLVI | not soluble
24 | ARGSHMEEMIRSLQQRPEPTPEEWDLIHIATEAHRSTNAQGSHWKQRRKFLPDDIGQSPIVSMPDGDKVDLEAFSEFTKIITPAITRVVDFAKKLPMFSELPCEDQIILLKGCCMEIMSLRAAVRYDPESDTLTLSGEMAVKREQLKNGGLGVVSDAIFELGKSLSAFNLDDTEVALLQAVLLMSTDRSGLLCVDKIEKSQEAYLLAFEHYVNHRKHNIPHFWPKLLMKVTDLRMIGACHASRFLHCKVECPTELFPPLFLEVFEDQEV | soluble
25 | ARKIGIIGLGNVGAAVAHGLIAQGVADDYVFIDANEAKVKADQIDFQDAMANLEAHGNIVINDWAALADADVVISTLGNIKLQQDNPTGDRFAELKFTSSMVQSVGTNLKESGFHGVLVVISNPVDVITALFQHVTGFPAHKVIGTGTLLDTARMQRAVGEAFDLDPRSVSGYNLGEHGNSQFVAWSTVRVMGQPIVTLADAGDIDLAAIEEEARKGGFTVLNGKGYTSYGVATSAIRIAKAVMADAHAELVVSNRRDDMGMYLSYPAIIGRDGVLAETTLDLTTDEQEKLLQSRDYIQQRFDEIVDTL | soluble
